Assay: In vivo HA degradation tracked by Alexa Fluor 700 fluorescent signal (IVIS) in ischemic hindlimb
Set-up: species or system mice
Details: streptavidin alone injected into the hindlimb
Experimental: Biotinylated HA was suspended in deionized water overnight, and Alexa Fluor 700-conjugated streptavidin (Invitrogen, Grand Island, N.Y., USA) was prepared according to the manufacturer's instructions. The streptavidin and biotinylated HA were then mixed and gently agitated at 4° C. This mixture was filtered through Amicon centrifugal filter units (molecular-weight cut off 100 kDa; Millipore, Billerica, Mass., USA) to exclude extra streptavidin. The final products were freeze-dried and stored at 4° C.
hMSCs were cultured on 10-cm culture dishes and maintained at 37° C. under an atmosphere of 5% CO2 in air. A total of 4×10^6 hMSCs were mixed with 200 μl of αMEM culture medium or 1% HA and then injected into the ischemic muscles of mice. Immediately and at various intervals after the injection, the mice were imaged using a Xenogen IVIS® Spectrum device and the corresponding filter sets. The fluorescent intensity was determined by calculating the number of photons within the manually drawn ROI, and the intensity was adjusted to exclude tissue autofluorescence. […]

## Alexa Fluor 700 labeled streptavidin: Alexa Fluor 700-conjugated streptavidin (Invitrogen), injected alone as label control
  time until fluorescence disappeared: ≤ 12 h
